Tests used:
HGF = assay: biomarker levels in IOMM-Lee by multiplex analysis; assay type: cell-based, Human; conditions: 1 μg/mL-80 μg/mL, 48 h
Excerpt: (§1) Effect of SEQ ID No 2 on the expression of following 7 biomarkers were estimated in Human Meningioma cell line (IOMM-Lee) using multiplex analysis: TNF-alpha, VEGF, VEGFR2, HGF, HGFR/c-MET, PDGF-BB, and Contactin-1. Levels of another marker, Notch-1 were also estimated by ELISA in the same cell line. These 8 biomarkers play very crucial role in the pathogenesis and progression of Brain Tumor. […] Supernatants were collected and the levels of these 8 markers were investigated.

Contactin-1 = assay: biomarker levels in IOMM-Lee by multiplex analysis; assay type: cell-based, Human; conditions: 1 μg/mL-80 μg/mL, 48 h
Excerpt: as §1

HGFR/c-MET = assay: biomarker levels in IOMM-Lee by multiplex analysis; assay type: cell-based, Human; conditions: 1 μg/mL-80 μg/mL, 48 h
Excerpt: as §1

PDGF-BB = assay: biomarker levels in IOMM-Lee by multiplex analysis; assay type: cell-based, Human; conditions: 1 μg/mL-80 μg/mL, 48 h
Excerpt: as §1

VEGFR2 = assay: biomarker levels in IOMM-Lee by multiplex analysis; assay type: cell-based, Human; conditions: 1 μg/mL-80 μg/mL, 48 h
Excerpt: as §1

VEGF = assay: biomarker levels in IOMM-Lee by multiplex analysis; assay type: cell-based, Human; conditions: 1 μg/mL-80 μg/mL, 48 h
Excerpt: as §1

TNF-α = assay: biomarker levels in IOMM-Lee by multiplex analysis; assay type: cell-based, Human; conditions: 1 μg/mL-80 μg/mL, 48 h
Excerpt: as §1

[1] = tested on: VEGF release in PANC-1 cells; assay: VEGF secretion in cancer cells (Human VEGF ELISA); assay type: cell-based; conditions: 24 h
Experimental: (§2) The cell lines were maintained in DMEM+10% […] (heat inactivated) at 37° C. with 5% CO2, and 95% humidity. Cells were counted and plated in 6-well plates for 24 h at a density of 0.5×10^6 cells/well. The cells were incubated overnight under growth conditions as described above so as to allow cell recovery and exponential growth. Cells were treated with each test item at different concentrations for 24h in serum free media. Doxorubicin was used as positive control. Secreted levels of VEGF were determined in supernatants after 24 hours using Human VEGF ELISA kit (R&D systems) as per manufacturer's protocol. Change in VEGF levels corresponding to each treatment was calculated using the following formula: […]

[2] = tested on: VEGF release in MDA-MB-231 cells; assay: VEGF secretion in cancer cells (Human VEGF ELISA); assay type: cell-based; conditions: 24 h
Experimental: as §2

MDA-MB-231 = assay: Cell cycle analysis (PI stain); assay type: cell-based, Human; conditions: 24 h
Experimental: The cell lines were maintained in DMEM+10% FBS (heat inactivated) at 37° C. with 5% CO2, and 95% humidity. Antibiotics Penicillin (100 U/mL) and Streptomycin (100 μg/mL) were added to the medium.
The stock solution of recombinant lectin having the amino acid sequence of SEQ ID NO. […] Doxorubicin was used as positive control and stock solution was prepared in DMSO.
Cells were counted using hemocytometer and plated in culture plates at density of 0.5×10^6 cells/well in DMEM+10% FBS in 6-well plates. Cells were incubated overnight to allow the cell recovery and exponential growth. Following overnight incubation, cells were sera starved in DMEM+1% FBS for 4 h. […] Untreated cells were included as Control group for test item. Cells treated with Doxorubicin were included as Positive Control group. DMSO treated cells were included as control group for Doxorubicin. After treatment, cells were incubated for a time period of 24 h. Following incubation, the pro-apoptotic effect by cell cycle was determined as follows: Cell cycle reagent contains PI stain, which stains DNA of cells in different phases of cell cycle; Sub(G0/G1), G1, S, G2 and M. Cells in Sub(G0/G1) phase correspond to apoptotic cells.
Cells were gently harvested into pre-labeled centrifuge tubes and centrifuged at 450 g for 5 min, RT (low brake). The supernatants were removed carefully (not to touch the pellet) and discarded. 1 mL of 1×PBS was added to the pellet and resuspended gently to make homogenous suspension. Cells were centrifuged at 450 g for 5 min, RT (low brake) (washing step). The supernatant was carefully removed leaving behind approx 100 μL of PBS. Cells were resuspended gently yet thoroughly in residual PBS. Ice-cold 70% ethanol (300 μLI) was added drop-wise into cells in each tube while vortexing at low speed (fixation step). Cells were stored at 4° C. for 24 h prior to staining.
Ethanol fixed cells were centrifuged at 450 g for 5 min, RT (low brake). The supernatant was carefully removed (not to touch the pellet) and discarded. (The pellet might not be visible but makes a thin film on surface of tube). 1 mL of 1×PBS was added into pellet and resuspended gently. Cells were incubated for 1 min at RT. Cells were centrifuged at 450 g for 5 min, RT (low brake) (washing step). The supernatant was removed carefully leaving behind approx 20 μL-50 μL of PBS. 200 μL of Cell Cycle reagent was added into each tube.
Cells were resuspended gently, mixed and were incubated for 30 min, RT, Dark. The stained samples were transferred into 96-well plates and acquired on flow cytometer (Guava technologies). Percentage of cells in Sub (G0/G1) phase were determined. Fold increase in apoptotic cells (treated with Test Items) was determined as compared to Control (untreated cells).

B1: SEQ ID NO. 2: recombinant lectin; variant of the S. rolfsii lectin amino acid sequence (reported as Rec-2 in WO 2010/095143) (protein)
chain: TYKITVRVYQTNPDAFFHPVEKTVWKYANGGTWTITDDQHVLTMGGSGTSGTLRFHADNGESFTATFGVHNYKRWCDIVTNLAADETGMVINQQYYSQKNREEARERQLSNYQVKNAKGRNFQIVYTEAEGNDLHANLIIG
modifications: In vitro synthesis
For B1, the “Percentage inhibition on levels of HGF” value (HGF) was 43.8%-93%^, the “Percentage inhibition on levels of Contactin-1” value (Contactin-1) was 0.3%-27.2% and the “Percentage inhibition on levels of HGFR/c-MET” value (HGFR/c-MET) was 5.5%-19.3%. The “Percentage inhibition on levels of PDGF-BB” value (PDGF-BB) was 33.6%-100%, the “Percentage inhibition on levels of VEGFR2” value (VEGFR2) was 17.8%-22.5% and the “Percentage inhibition on levels of VEGF” value (VEGF) was 3.9%-49.3%. The “Percentage inhibition on levels of TNF-α” value (TNF-α) was 16.8%-42.3%, the “Average absorbance at 450 nM” value ([1]; 2.5 μg/mL) was 1.717 and the “Percentage decrease in VEGF levels” value ([1]; 2.5 μg/mL) was −5.5%. The “VEGF level” value ([1]; 2.5 μg/mL) was 1077.5 pg/mL, the “Average absorbance at 450 nM” value ([1]; 5 μg/mL) was 1.821 and the “Percentage decrease in VEGF levels” value ([1]; 5 μg/mL) was −12.3%. The “VEGF level” value ([1]; 5 μg/mL) was 1146.8 pg/mL, the “Average absorbance at 450 nM” value ([1]; 10 μg/mL) was 2.085 and the “Percentage decrease in VEGF levels” value ([1]; 10 μg/mL) was −29.5%. For the same molecule, the “VEGF level” value ([1]; 10 μg/mL) was 1322.6 pg/mL, the “Average absorbance at 450 nM” value ([1]; 20 μg/mL) was 2.202 and the “Percentage decrease in VEGF levels” value ([1]; 20 μg/mL) was −37.2%. For the same molecule, the “VEGF level” value ([1]; 20 μg/mL) was 1400.6 pg/mL, the “Average absorbance at 450 nM” value ([1]; 80 μg/mL) was 2.006 and the “Percentage decrease in VEGF levels” value ([1]; 80 μg/mL) was −24.4%. For the same molecule, the “VEGF level” value ([1]; 80 μg/mL) was 1269.9 pg/mL, the “Average absorbance at 450 nM” value ([2]; 2.5 μg/mL) was 0.970 and the “Percentage decrease in VEGF levels” value ([2]; 2.5 μg/mL) was −25.0%. The “VEGF level” value ([2]; 2.5 μg/mL) was 579.3 pg/mL, the “Average absorbance at 450 nM” value ([2]; 5 μg/mL) was 0.763 and the “Percentage decrease in VEGF levels” value ([2]; 5 μg/mL) was 4.8%. For the same molecule, the “VEGF level” value ([2]; 5 μg/mL) was 441.0 pg/mL, the “Average absorbance at 450 nM” value ([2]; 10 μg/mL) was 1.072 and the “Percentage decrease in VEGF levels” value ([2]; 10 μg/mL) was −39.8%. For the same molecule, the “VEGF level” value ([2]; 10 μg/mL) was 647.5 pg/mL, the “Average absorbance at 450 nM” value ([2]; 20 μg/mL) was 1.552 and the “Percentage decrease in VEGF levels” value ([2]; 20 μg/mL) was −108.8%. The “VEGF level” value ([2]; 20 μg/mL) was 967.3 pg/mL, the “Average absorbance at 450 nM” value ([2]; 80 μg/mL) was 2.222 and the “Percentage decrease in VEGF levels” value ([2]; 80 μg/mL) was −205.2%. The “VEGF level” value ([2]; 80 μg/mL) was 1413.9 pg/mL, the “% Population of cells, Apoptotic Sub(G0/G1)” value (MDA-MB-231; 2.5 μg/mL) was 10.05% and the “% Population of cells, G0/G1” value (MDA-MB-231; 2.5 μg/mL) was 65.21%. For the same molecule, the “% Population of cells, G2/M” value (MDA-MB-231; 2.5 μg/mL) was 12.97%, the “% Population of cells, S” value (MDA-MB-231; 2.5 μg/mL) was 6.10% and the “Fold Increase (wrt Control) Apoptotic Sub(G0/G1)” value (“Fold Increase” below) (MDA-MB-231; 2.5 μg/mL) was 4.1 fold. The “% Population of cells, Apoptotic Sub(G0/G1)” value (MDA-MB-231; 5 μg/mL) was 5.75%, the “% Population of cells, G0/G1” value (MDA-MB-231; 5 μg/mL) was 61.99% and the “% Population of cells, G2/M” value (MDA-MB-231; 5 μg/mL) was 15.40%. For the same molecule, the “% Population of cells, S” value (MDA-MB-231; 5 μg/mL) was 8.15%, the “Fold Increase” value (MDA-MB-231; 5 μg/mL) was 2.3 fold and the “% Population of cells, Apoptotic Sub(G0/G1)” value (MDA-MB-231; 10 μg/mL) was 6.65%. For the same molecule, the “% Population of cells, G0/G1” value (MDA-MB-231; 10 μg/mL) was 60.71%, the “% Population of cells, G2/M” value (MDA-MB-231; 10 μg/mL) was 15.50% and the “% Population of cells, S” value (MDA-MB-231; 10 μg/mL) was 7.36%. The “Fold Increase” value (MDA-MB-231; 10 μg/mL) was 2.7 fold, the “% Population of cells, Apoptotic Sub(G0/G1)” value (MDA-MB-231; 20 μg/mL) was 15.43% and the “% Population of cells, G0/G1” value (MDA-MB-231; 20 μg/mL) was 55.66%. The “% Population of cells, G2/M” value (MDA-MB-231; 20 μg/mL) was 13.35%, the “% Population of cells, S” value (MDA-MB-231; 20 μg/mL) was 6.55% and the “Fold Increase” value (MDA-MB-231; 20 μg/mL) was 6.3 fold. The “% Population of cells, Apoptotic Sub(G0/G1)” value (MDA-MB-231; 80 μg/mL) was 35.62%, the “% Population of cells, G0/G1” value (MDA-MB-231; 80 μg/mL) was 42.49% and the “% Population of cells, G2/M” value (MDA-MB-231; 80 μg/mL) was 10.14%. For the same molecule, the “% Population of cells, S” value (MDA-MB-231; 80 μg/mL) was 8.09% and the “Fold Increase” value (MDA-MB-231; 80 μg/mL) was 14.5 fold.
